According to the supplement of paper PMC9112550, “Optimization of the antimicrobial peptide Bac7 by deep mutational scanning” (BMC Biology, 2022):

Tested on: Escherichia coli TOP10
Experiment: shrunken log2 fold change of peptide-encoding DNA abundance (4.5 h post-induction vs induction); higher = less antimicrobial activity (less host growth inhibition)
Settings: time post-induction: 4.5 h; library: site-saturation at positions 5, 18, 19, 20
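Also: peptides expressed intracellularly from a pBAD plasmid library in pooled LB shake-flask culture, induced with 0.3% L-arabinose, DNA abundance read by NGS, three biological replicates, DESeq2 with apeglm shrinkage.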

RRIRHRPPRLPRPRPRPEILPRP
shrunken log2 fold change: -0.00654

RRIRHRPPRLPRPRPRPELWPRP
shrunken log2 fold change: 0.376

RRIRHRPPRLPRPRPRPEMPPRP
shrunken log2 fold change: -0.177

RRIRHRPPRLPRPRPRPEPRPRP
shrunken log2 fold change: 0.137

RRIRHRPPRLPRPRPRPEQHPRP
shrunken log2 fold change: 1.73

RRIRHRPPRLPRPRPRPERMPRP
shrunken log2 fold change: -0.0151

RRIRHRPPRLPRPRPRPERPPRP
shrunken log2 fold change: -0.0369

RRIRHRPPRLPRPRPRPERRPRP
shrunken log2 fold change: 0.0748

RRIRHRPPRLPRPRPRPERYPRP
shrunken log2 fold change: -0.0389

RRIRHRPPRLPRPRPRPEWFPRP
shrunken log2 fold change: -0.0468

RRIRHRPPRLPRPRPRPEWHPRP
shrunken log2 fold change: 0.0223

RRIRHRPPRLPRPRPRPEWVPRP
shrunken log2 fold change: -0.086

RRIRHRPPRLPRPRPRPEYDPRP
shrunken log2 fold change: -0.0789

RRIRHRPPRLPRPRPRPFAQPRP
shrunken log2 fold change: -0.163

RRIRHRPPRLPRPRPRPFCIPRP
shrunken log2 fold change: -0.538

RRIRHRPPRLPRPRPRPFDEPRP
shrunken log2 fold change: -0.173

RRIRHRPPRLPRPRPRPFDNPRP
shrunken log2 fold change: -0.0137

RRIRHRPPRLPRPRPRPFEQPRP
shrunken log2 fold change: -0.283

RRIRHRPPRLPRPRPRPFESPRP
shrunken log2 fold change: -0.00822

RRIRHRPPRLPRPRPRPFFEPRP
shrunken log2 fold change: -0.0877

RRIRHRPPRLPRPRPRPFGSPRP
shrunken log2 fold change: -0.0134

RRIRHRPPRLPRPRPRPFHYPRP
shrunken log2 fold change: -0.0791

RRIRHRPPRLPRPRPRPFICPRP
shrunken log2 fold change: 0.00486

RRIRHRPPRLPRPRPRPFILPRP
shrunken log2 fold change: -0.675

RRIRHRPPRLPRPRPRPFITPRP
shrunken log2 fold change: -0.799

RRIRHRPPRLPRPRPRPFKFPRP
shrunken log2 fold change: -0.376

RRIRHRPPRLPRPRPRPFLVPRP
shrunken log2 fold change: -0.106

RRIRHRPPRLPRPRPRPFMRPRP
shrunken log2 fold change: -0.42

RRIRHRPPRLPRPRPRPFNEPRP
shrunken log2 fold change: -0.64

RRIRHRPPRLPRPRPRPFNRPRP
shrunken log2 fold change: 0.00911

RRIRHRPPRLPRPRPRPFSDPRP
shrunken log2 fold change: -0.149

RRIRHRPPRLPRPRPRPFTGPRP
shrunken log2 fold change: -0.171

RRIRHRPPRLPRPRPRPFTVPRP
shrunken log2 fold change: -0.0532

RRIRHRPPRLPRPRPRPFYGPRP
shrunken log2 fold change: -0.0135

RRIRHRPPRLPRPRPRPFYNPRP
shrunken log2 fold change: -0.632

RRIRHRPPRLPRPRPRPGCEPRP
shrunken log2 fold change: 0.103

RRIRHRPPRLPRPRPRPGDWPRP
shrunken log2 fold change: -0.133

RRIRHRPPRLPRPRPRPGESPRP
shrunken log2 fold change: -0.0414

RRIRHRPPRLPRPRPRPGGPPRP
shrunken log2 fold change: -0.355

RRIRHRPPRLPRPRPRPGGQPRP
shrunken log2 fold change: 0.0463

RRIRHRPPRLPRPRPRPGIQPRP
shrunken log2 fold change: -0.277

RRIRHRPPRLPRPRPRPGIYPRP
shrunken log2 fold change: 0.0151

RRIRHRPPRLPRPRPRPGLEPRP
shrunken log2 fold change: 0.00016

RRIRHRPPRLPRPRPRPGLGPRP
shrunken log2 fold change: 0.404

RRIRHRPPRLPRPRPRPGNNPRP
shrunken log2 fold change: -0.00857

RRIRHRPPRLPRPRPRPGQHPRP
shrunken log2 fold change: -0.372

RRIRHRPPRLPRPRPRPGQRPRP
shrunken log2 fold change: 0.0218

RRIRHRPPRLPRPRPRPGQSPRP
shrunken log2 fold change: -0.0176

RRIRHRPPRLPRPRPRPGSEPRP
shrunken log2 fold change: 0.176

RRIRHRPPRLPRPRPRPGSKPRP
shrunken log2 fold change: -0.00664

RRIRHRPPRLPRPRPRPGSVPRP
shrunken log2 fold change: -0.31

RRIRHRPPRLPRPRPRPGTLPRP
shrunken log2 fold change: -0.259

RRIRHRPPRLPRPRPRPGWGPRP
shrunken log2 fold change: 0.0673

RRIRHRPPRLPRPRPRPHEHPRP
shrunken log2 fold change: 0.103

RRIRHRPPRLPRPRPRPHERPRP
shrunken log2 fold change: -0.00134

RRIRHRPPRLPRPRPRPHFKPRP
shrunken log2 fold change: -0.455

RRIRHRPPRLPRPRPRPHFMPRP
shrunken log2 fold change: 0.00955

RRIRHRPPRLPRPRPRPHFRPRP
shrunken log2 fold change: 0.00253

RRIRHRPPRLPRPRPRPHHHPRP
shrunken log2 fold change: -1

RRIRHRPPRLPRPRPRPHHRPRP
shrunken log2 fold change: -0.257

RRIRHRPPRLPRPRPRPHKIPRP
shrunken log2 fold change: -0.215

RRIRHRPPRLPRPRPRPHLRPRP
shrunken log2 fold change: -0.0385

RRIRHRPPRLPRPRPRPHLVPRP
shrunken log2 fold change: -0.18

RRIRHRPPRLPRPRPRPHMHPRP
shrunken log2 fold change: -0.687

RRIRHRPPRLPRPRPRPHNVPRP
shrunken log2 fold change: -0.195

RRIRHRPPRLPRPRPRPHPYPRP
shrunken log2 fold change: -0.462

RRIRHRPPRLPRPRPRPHQAPRP
shrunken log2 fold change: -0.0163

RRIRHRPPRLPRPRPRPHQVPRP
shrunken log2 fold change: -0.00848

RRIRHRPPRLPRPRPRPHRLPRP
shrunken log2 fold change: -0.0453

RRIRHRPPRLPRPRPRPHTLPRP
shrunken log2 fold change: -0.247

RRIRHRPPRLPRPRPRPHTNPRP
shrunken log2 fold change: -0.672

RRIRHRPPRLPRPRPRPHVNPRP
shrunken log2 fold change: -0.183

RRIRHRPPRLPRPRPRPHWCPRP
shrunken log2 fold change: -0.0566

RRIRHRPPRLPRPRPRPHWQPRP
shrunken log2 fold change: -0.00133

RRIRHRPPRLPRPRPRPHWRPRP
shrunken log2 fold change: 0.125

RRIRHRPPRLPRPRPRPHWTPRP
shrunken log2 fold change: -0.00191

RRIRHRPPRLPRPRPRPHYMPRP
shrunken log2 fold change: -0.854

RRIRHRPPRLPRPRPRPHYYPRP
shrunken log2 fold change: -0.216

RRIRHRPPRLPRPRPRPICAPRP
shrunken log2 fold change: -0.0362

RRIRHRPPRLPRPRPRPIDIPRP
shrunken log2 fold change: -0.326

RRIRHRPPRLPRPRPRPIDMPRP
shrunken log2 fold change: 0.0231

RRIRHRPPRLPRPRPRPIGDPRP
shrunken log2 fold change: -0.00136

RRIRHRPPRLPRPRPRPIHFPRP
shrunken log2 fold change: -0.171

RRIRHRPPRLPRPRPRPIHVPRP
shrunken log2 fold change: 0.0364

RRIRHRPPRLPRPRPRPIKPPRP
shrunken log2 fold change: -0.236

RRIRHRPPRLPRPRPRPILMPRP
shrunken log2 fold change: -0.00291

RRIRHRPPRLPRPRPRPILQPRP
shrunken log2 fold change: -0.152

RRIRHRPPRLPRPRPRPIMHPRP
shrunken log2 fold change: -0.375

RRIRHRPPRLPRPRPRPIMKPRP
shrunken log2 fold change: -0.317

RRIRHRPPRLPRPRPRPINAPRP
shrunken log2 fold change: 0.0354

RRIRHRPPRLPRPRPRPINTPRP
shrunken log2 fold change: -0.249

RRIRHRPPRLPRPRPRPIPCPRP
shrunken log2 fold change: -0.0558

RRIRHRPPRLPRPRPRPIRFPRP
shrunken log2 fold change: -0.00142

RRIRHRPPRLPRPRPRPISRPRP
shrunken log2 fold change: -0.0532

RRIRHRPPRLPRPRPRPITNPRP
shrunken log2 fold change: -1.23

RRIRHRPPRLPRPRPRPIVHPRP
shrunken log2 fold change: -0.125

RRIRHRPPRLPRPRPRPIYIPRP
shrunken log2 fold change: -0.156

RRIRHRPPRLPRPRPRPKAWPRP
shrunken log2 fold change: -0.00151

RRIRHRPPRLPRPRPRPKEDPRP
shrunken log2 fold change: 2.87

RRIRHRPPRLPRPRPRPKFDPRP
shrunken log2 fold change: -0.336

RRIRHRPPRLPRPRPRPKFSPRP
shrunken log2 fold change: -0.304

RRIRHRPPRLPRPRPRPKGHPRP
shrunken log2 fold change: -0.311

RRIRHRPPRLPRPRPRPKGLPRP
shrunken log2 fold change: 0.0749

RRIRHRPPRLPRPRPRPKHQPRP
shrunken log2 fold change: -0.195

RRIRHRPPRLPRPRPRPKHYPRP
shrunken log2 fold change: -0.577

RRIRHRPPRLPRPRPRPKIKPRP
shrunken log2 fold change: -0.601

RRIRHRPPRLPRPRPRPKKIPRP
shrunken log2 fold change: -0.129

RRIRHRPPRLPRPRPRPKLQPRP
shrunken log2 fold change: 0.0439

RRIRHRPPRLPRPRPRPKMPPRP
shrunken log2 fold change: -0.0334

RRIRHRPPRLPRPRPRPKMRPRP
shrunken log2 fold change: 0.312

RRIRHRPPRLPRPRPRPKMTPRP
shrunken log2 fold change: -0.519

RRIRHRPPRLPRPRPRPKPDPRP
shrunken log2 fold change: 0.0401

RRIRHRPPRLPRPRPRPKQFPRP
shrunken log2 fold change: -0.108

RRIRHRPPRLPRPRPRPKRAPRP
shrunken log2 fold change: 0.0906

RRIRHRPPRLPRPRPRPKRCPRP
shrunken log2 fold change: -0.0661

RRIRHRPPRLPRPRPRPKSCPRP
shrunken log2 fold change: -0.0344

RRIRHRPPRLPRPRPRPKSLPRP
shrunken log2 fold change: -0.0347

RRIRHRPPRLPRPRPRPKWPPRP
shrunken log2 fold change: 0.0116

RRIRHRPPRLPRPRPRPKYKPRP
shrunken log2 fold change: -0.679

RRIRHRPPRLPRPRPRPKYLPRP
shrunken log2 fold change: -0.0216

RRIRHRPPRLPRPRPRPKYYPRP
shrunken log2 fold change: 0.046

RRIRHRPPRLPRPRPRPLAAPRP
shrunken log2 fold change: 0.325

RRIRHRPPRLPRPRPRPLAIPRP
shrunken log2 fold change: -0.346

RRIRHRPPRLPRPRPRPLCTPRP
shrunken log2 fold change: -0.247

RRIRHRPPRLPRPRPRPLDWPRP
shrunken log2 fold change: 0.393

RRIRHRPPRLPRPRPRPLEVPRP
shrunken log2 fold change: -0.184

RRIRHRPPRLPRPRPRPLFSPRP
shrunken log2 fold change: -0.888

RRIRHRPPRLPRPRPRPLGVPRP
shrunken log2 fold change: -0.109

RRIRHRPPRLPRPRPRPLHCPRP
shrunken log2 fold change: -0.519

RRIRHRPPRLPRPRPRPLIFPRP
shrunken log2 fold change: -0.38

RRIRHRPPRLPRPRPRPLIGPRP
shrunken log2 fold change: -0.155

RRIRHRPPRLPRPRPRPLIKPRP
shrunken log2 fold change: -0.721

RRIRHRPPRLPRPRPRPLIRPRP
shrunken log2 fold change: -0.217

RRIRHRPPRLPRPRPRPLKIPRP
shrunken log2 fold change: -0.0842

RRIRHRPPRLPRPRPRPLKTPRP
shrunken log2 fold change: 0.0116

RRIRHRPPRLPRPRPRPLLCPRP
shrunken log2 fold change: -0.223

RRIRHRPPRLPRPRPRPLLDPRP
shrunken log2 fold change: -0.117

RRIRHRPPRLPRPRPRPLLLPRP
shrunken log2 fold change: -0.208

RRIRHRPPRLPRPRPRPLMFPRP
shrunken log2 fold change: -0.236

RRIRHRPPRLPRPRPRPLMHPRP
shrunken log2 fold change: -0.414

RRIRHRPPRLPRPRPRPLMLPRP
shrunken log2 fold change: -0.0972

RRIRHRPPRLPRPRPRPLNFPRP
shrunken log2 fold change: -0.0479

RRIRHRPPRLPRPRPRPLNQPRP
shrunken log2 fold change: -0.17

RRIRHRPPRLPRPRPRPLNWPRP
shrunken log2 fold change: 0.0279

RRIRHRPPRLPRPRPRPLQEPRP
shrunken log2 fold change: -0.331

RRIRHRPPRLPRPRPRPLQRPRP
shrunken log2 fold change: -0.187

RRIRHRPPRLPRPRPRPLTRPRP
shrunken log2 fold change: 0.0261

RRIRHRPPRLPRPRPRPLVSPRP
shrunken log2 fold change: 0.0121

RRIRHRPPRLPRPRPRPLWAPRP
shrunken log2 fold change: 0.222

RRIRHRPPRLPRPRPRPLYGPRP
shrunken log2 fold change: -0.214
